The text below walks through data of patent US20130295121A1 (published 2013).

One assay concerns the target T1, soluble CD16A (sCD16A) (human, UniProt P08637 17-208, biotin- or HRP-conjugated where used as the ELISA probe).
T1 construct: extracellular domain; Printed only as soluble CD16A; Also used here where an ELISA names only CD16 or CD16A; also called hCD16A; FcγRIIIA
The assay is described as follows: SPR (BIAcore), receptor immobilized.

A further assay addresses T2, soluble CD32A (sCD32A) (UniProt P12318 34-217, limits assumed).
T2 construct: extracellular domain; Negative control receptor in SPR; also called control receptor
T2 sequence (looked up): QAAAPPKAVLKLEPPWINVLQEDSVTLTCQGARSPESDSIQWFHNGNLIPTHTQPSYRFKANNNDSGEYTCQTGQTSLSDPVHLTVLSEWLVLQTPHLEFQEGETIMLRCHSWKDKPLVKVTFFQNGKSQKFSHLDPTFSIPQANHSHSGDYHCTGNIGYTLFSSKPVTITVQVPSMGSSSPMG
The assay is described as follows: SPR (BIAcore), receptor immobilized.

For a further assay, the target named is T3, soluble CD32B (sCD32B) (human, UniProt P31994 43-217, biotinylated where used as the ELISA probe).
T3 construct: extracellular domain; also called huCD32B; FcγRIIB
T3 sequence (looked up): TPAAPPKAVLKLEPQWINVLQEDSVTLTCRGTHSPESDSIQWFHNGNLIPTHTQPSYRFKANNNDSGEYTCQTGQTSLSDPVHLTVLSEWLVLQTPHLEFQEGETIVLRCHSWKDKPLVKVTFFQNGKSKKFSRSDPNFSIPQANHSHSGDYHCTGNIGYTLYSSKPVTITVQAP
The assay is described as follows: SPR (BIAcore), sCD32B immobilized, diabody 6.25-200 nM as analyte, bivalent analyte fit.

T1 sequence (P08637 17-208): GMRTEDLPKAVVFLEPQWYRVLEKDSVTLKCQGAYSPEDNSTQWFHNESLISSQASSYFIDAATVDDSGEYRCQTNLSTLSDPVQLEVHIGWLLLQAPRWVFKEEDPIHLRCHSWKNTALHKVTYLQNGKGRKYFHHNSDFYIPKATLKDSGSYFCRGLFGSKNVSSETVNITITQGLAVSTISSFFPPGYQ

B1: h2B6 covalent monospecific diabody (CMD) (other)
chain: EIVLTQSPDFQSVTPKEKVTFTCRTSQSIGTNIHWYQQKPDQSPKLLIKEVSESISGVPSRFSGSGSGTDFTLTINSLEAEDAATYYCQQSNTWPFTFGGGTKVEIKGGGSGGGGQVQLVQSGAEVKKPGASVKVSCKASGYTFTNYWIHWVRQAPGQGLEWIGVIDPSDTYPNYNKKFKGRVTMTVVVSTSTAYMELRSLRSDDTAVYYCARNGDSDYYSGMDYWGQGTTVTVSSLGGC
notes: Homodimer of construct 4 (hu2B6VL-hu2B6VH-LGGC); also called h2B6 CMD; h2B6 diabody
As to B1, the binding result with soluble CD16A (sCD16A) and in the assay with soluble CD32A (sCD32A) was “no binding (tested: 100 nM)” throughout. In the assay with soluble CD32B (sCD32B), this molecule registered a Kd of 21 nM.
